Patent publication US20160257744A1 (Genentech, published 2016)
Substitutions are numbered along the chain they refer to.

Key:
interleukin 13 (IL13) [1] = target: T1, interleukin 13 (IL13) (UniProt P35225 35-146, limits assumed); test: phage ELISA: direct binding of the phage clone to antigen-coated wells (NB = no detectable binding)
interleukin 5 (IL5) [2] = target: T2, interleukin 5 (IL5) (human, UniProt P05113 20-134); test: as above
T2 construct: also called human IL5 (R&D Systems)
T2 sequence (looked up): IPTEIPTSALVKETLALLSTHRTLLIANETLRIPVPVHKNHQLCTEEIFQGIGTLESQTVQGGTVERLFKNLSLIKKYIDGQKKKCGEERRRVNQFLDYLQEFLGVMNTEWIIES

interleukin 4 (IL4) [3] = target: T3, interleukin 4 (IL4) (UniProt P05112 25-153); test: phage competition ELISA: Fab-phage incubated 2 h with serial dilutions of the antigen in solution, unbound phage captured on antigen-coated wells, anti-M13-HRP; IC50 = antigen concentration inhibiting 50% of phage binding
T3 sequence (looked up): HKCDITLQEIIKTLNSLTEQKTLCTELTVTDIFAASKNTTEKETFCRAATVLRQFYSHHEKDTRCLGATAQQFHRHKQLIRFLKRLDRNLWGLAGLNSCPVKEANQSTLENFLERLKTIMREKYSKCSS
Method: (§1) Fab displaying phage was first incubated with serial dilutions of the respective antigens in solution for 2 h, unbound phage was then briefly captured by antigen coated ELISA wells and detected with anti-M13 HRP conjugate. The concentration of antigen inhibiting 50% of phage binding to antigen coated well is calculated as IC₅₀. NB denotes no detectable binding of phage clone directly to the antigens coated wells.

interleukin 4 (IL4) [4] = target: T3, interleukin 4 (IL4); test: phage ELISA, Fab-displaying phage on IL4
Text: Anti-gD antibody was directly coated on ELISA wells, whereas IL4 was captured with a non-blocking anti-IL4 antibody coated on ELISA wells.

interleukin 5 (IL5) [5] = target: T2, interleukin 5 (IL5); test: SPR (Biacore), Fab over immobilized human IL5, 25 °C
interleukin 13 (IL13) [6] = target: T1, interleukin 13 (IL13); test: ELISA: human IgG1 at 250 nM on protein-coated wells, anti-Fc-HRP
HER2 ECD [7] = target: T4, HER2 ECD; test: as above
T4 construct: one of the irrelevant proteins; also called irrelevant protein coated on ELISA wells

interleukin 5 (IL5) [8] = target: T2, interleukin 5 (IL5); test: as above
BSA [9] = target: T5, BSA (bovine, UniProt P02769); test: as above
T5 construct: negative control protein; also called irrelevant protein coated on ELISA wells
T5 sequence (P02769 25-607 limits assumed): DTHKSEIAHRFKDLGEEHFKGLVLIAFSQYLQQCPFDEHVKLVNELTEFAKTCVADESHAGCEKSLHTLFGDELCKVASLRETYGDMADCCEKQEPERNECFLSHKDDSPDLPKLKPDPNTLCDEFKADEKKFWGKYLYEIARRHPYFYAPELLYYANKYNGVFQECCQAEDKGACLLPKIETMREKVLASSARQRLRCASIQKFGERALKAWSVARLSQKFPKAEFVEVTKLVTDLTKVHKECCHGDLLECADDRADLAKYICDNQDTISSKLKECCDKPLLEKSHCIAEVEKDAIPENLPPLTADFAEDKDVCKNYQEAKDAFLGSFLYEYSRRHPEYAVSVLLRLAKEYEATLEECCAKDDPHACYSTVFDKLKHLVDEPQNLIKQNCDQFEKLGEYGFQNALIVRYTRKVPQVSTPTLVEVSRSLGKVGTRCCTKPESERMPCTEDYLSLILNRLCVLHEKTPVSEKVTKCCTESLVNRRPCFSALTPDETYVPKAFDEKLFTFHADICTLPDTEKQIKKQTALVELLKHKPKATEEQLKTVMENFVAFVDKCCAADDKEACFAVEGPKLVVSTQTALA

interleukin 4 (IL4) [10] = target: T3, interleukin 4 (IL4); test: phage ELISA: direct binding of the phage clone to antigen-coated wells (NB = no detectable binding)
interleukin 5 (IL5) [11] = target: T2, interleukin 5 (IL5); test: phage competition ELISA: Fab-phage incubated 2 h with serial dilutions of the antigen in solution, unbound phage captured on antigen-coated wells, anti-M13-HRP; IC50 = antigen concentration inhibiting 50% of phage binding
Method: as §1

HER2 ECD [12] = target: T4, HER2 ECD; test: ELISA: IgG at 100 nM on immobilized protein, anti-IgG-HRP [panel A]
BSA [13] = target: T5, BSA; test: as above
interleukin 4 (IL4) [14] = target: T3, interleukin 4 (IL4); test: ELISA: human IgG1 at 250 nM on protein-coated wells, anti-Fc-HRP

T1 sequence (P35225 35-146 limits assumed): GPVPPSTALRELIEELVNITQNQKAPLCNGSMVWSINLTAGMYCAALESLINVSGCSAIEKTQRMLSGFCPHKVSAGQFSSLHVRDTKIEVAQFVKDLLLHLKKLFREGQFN

B1: humanized antibody 19C11 (hu19C11) wild-type Fab displayed on M13 phage (Fab, V domains shown)
VH: EVQLVQSGAEVKKPGASVKVSCKASGYTFTDYSMHWVRQAPGQGLEWIVWINTETGEPTYADDFKGRVTITRDTSTSTAYLELSSLRSEDTAVYYCARGGIFYGMDYWGQGTLVTVSS
VL: DIQMTQSPSSLSASVGDRVTITCKASQSVINDAAWYQQKPGKAPKLLIYYTSHRYTGVPSRFSGSGSGTDFTLTISSLQEDFATYYCQQDYTSPWTFGQGTKVEIKR
notes: Phagemid pV0115: light chain with gD expression tag fused to its C-terminus; VH-CH1 followed by hinge piece KTHTC and M13 minor coat protein p3 (bivalent Fab display); Humanized in germline VH1 / kappa I backbone; also called hu19C11 wt; Fab-displaying phage
- binding result (interleukin 13 (IL13) [1]): no binding
- binding result (interleukin 5 (IL5) [2]): no binding
- IC50 (interleukin 4 (IL4) [3]): 0.0011 µM
- EC50 (interleukin 4 (IL4) [4]): 0.001 µM

B2: E7 purified as Fab (Fab, V domains shown)
VH: EVQLVQSGAEVKKPGASVKVSCKASGYTFTDYFIHWVRQAPGQGLEWIAGIVYDATGFTTYADDFKGRVTITRDTSTSTAYLELSSLRSEDTAVYYCARGGIFYGMDYWGQGTLVTVSS
VL: B1 VL
notes: also called IL4/IL5 dual specific clone E7
- Kd (interleukin 5 (IL5) [5]): 0.905 µM

B3: humanized antibody 19C11 (hu19C11) as IgG (antibody, V domains shown)
VH: B1 VH
VL: B1 VL
notes: IgG; also called the antibody as IgG
- binding result (interleukin 13 (IL13) [6]): no binding (tested: 250 nM)
- binding result (HER2 ECD [7]): no binding (tested: 250 nM)
- binding result (interleukin 5 (IL5) [8]): no binding (tested: 250 nM)
- binding result (BSA [9]): no binding (tested: 250 nM)

B4: F2 as human IgG1 (antibody, V domains shown)
VH: EVQLVQSGAEVKKPGASVKVSCKASGYTFTDYSMHWVRQAPGQGLEWIGIIFYTGHTYYADDFKGRVTITRDTSTSTAYLELSSLRSEDTAVYYCARGGIFYGMDYWGQGTLVTVSS
VL: B1 VL
- binding result (HER2 ECD [7]): no binding (tested: 250 nM)
- binding result (interleukin 5 (IL5) [8]): no binding (tested: 250 nM)
- binding result (BSA [9]): no binding (tested: 250 nM)

B5: 5A, anti-IL5 specific variant of hu19C11, Fab displayed on phage (Fab, V domains shown)
VH: B1 VH with S33D, M34I, G99E, G100I, I101L
VL: B1 VL
notes: also called clone 5A
- binding result (interleukin 13 (IL13) [1]): no binding
- binding result (interleukin 4 (IL4) [10]): no binding
- IC50 (interleukin 5 (IL5) [11]): ~1 µM

B6: 1C36, affinity-matured variant of E7, as IgG (antibody, V domains shown)
VH: B2 VH with A49G, D63E, D64E
VL: B1 VL with S93H
- binding result (HER2 ECD [12]): no binding (tested: 100 nM)
- binding result (BSA [13]): no binding (tested: 100 nM)

B7: 1C60, affinity-matured variant of E7, as IgG (antibody, V domains shown)
VH: B2 VH with T60V
VL: B1 VL with T92K, S93H
- binding result (HER2 ECD [12]): no binding (tested: 100 nM)
- binding result (BSA [13]): no binding (tested: 100 nM)

B8: 5A as human IgG1 (antibody, V domains shown)
VH: B1 VH with S33D, M34I, G99E, G100I, I101L
VL: B1 VL
- binding result (interleukin 13 (IL13) [6]): no binding (tested: 250 nM)
- binding result (interleukin 4 (IL4) [14]): no binding (tested: 250 nM)
- binding result (HER2 ECD [7]): no binding (tested: 250 nM)
- binding result (BSA [9]): no binding (tested: 250 nM)
